Reference: US20180022780A1 (Bayer, published 2018)
One block for each binder: values may come before it. Bridge positions count the residues as written; N and C are the ends. Square brackets hold non-standard residues; d marks the D form. Ends that are not written are not given here. * marks the point of attachment. Palmitoyl = CCCCCCCCCCCCCCCC(=O)*; NMeK = CN[C@@H](CCCCN)C(=O)O; Orn = NCCC[C@H](N)C(=O)O; Dab = NCC[C@H](N)C(=O)O; Dap = NC[C@H](N)C(=O)O

Tests used:
[1] = target: human adrenomedullin-receptor (human, UniProt Q16602 23-461); assay: cell-based or functional assay
[2] = target: CLR fused to EYFP with RAMP2 fused to ECFP; assay: cell-based or functional assay
CLR fused to EYFP with RAMP2 fused to ECFP, sequence (Q16602 whole entry, chain 1 of 2, the tested form may be a part): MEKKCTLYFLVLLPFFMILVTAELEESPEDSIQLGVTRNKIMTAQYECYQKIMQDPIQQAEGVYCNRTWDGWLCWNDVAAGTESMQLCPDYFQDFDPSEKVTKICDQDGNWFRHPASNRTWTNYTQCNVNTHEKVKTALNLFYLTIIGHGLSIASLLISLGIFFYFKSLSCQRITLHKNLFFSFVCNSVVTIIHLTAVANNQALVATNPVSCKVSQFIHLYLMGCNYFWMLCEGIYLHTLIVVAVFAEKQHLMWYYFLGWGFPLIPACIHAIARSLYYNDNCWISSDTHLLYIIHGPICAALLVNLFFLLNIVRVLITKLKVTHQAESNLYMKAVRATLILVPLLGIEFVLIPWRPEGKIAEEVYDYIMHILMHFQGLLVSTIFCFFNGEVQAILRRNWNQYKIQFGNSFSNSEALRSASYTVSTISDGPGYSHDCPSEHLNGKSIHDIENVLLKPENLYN
CLR fused to EYFP with RAMP2 fused to ECFP, sequence (O60895 whole entry, chain 2 of 2, further chain, the tested form may be a part): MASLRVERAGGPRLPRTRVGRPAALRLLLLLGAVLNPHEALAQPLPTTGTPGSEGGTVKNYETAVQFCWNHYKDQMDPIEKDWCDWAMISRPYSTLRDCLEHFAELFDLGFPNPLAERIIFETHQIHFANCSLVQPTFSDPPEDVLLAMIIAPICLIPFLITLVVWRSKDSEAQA

human adrenomedullin-receptor, sequence (Q16602 23-461): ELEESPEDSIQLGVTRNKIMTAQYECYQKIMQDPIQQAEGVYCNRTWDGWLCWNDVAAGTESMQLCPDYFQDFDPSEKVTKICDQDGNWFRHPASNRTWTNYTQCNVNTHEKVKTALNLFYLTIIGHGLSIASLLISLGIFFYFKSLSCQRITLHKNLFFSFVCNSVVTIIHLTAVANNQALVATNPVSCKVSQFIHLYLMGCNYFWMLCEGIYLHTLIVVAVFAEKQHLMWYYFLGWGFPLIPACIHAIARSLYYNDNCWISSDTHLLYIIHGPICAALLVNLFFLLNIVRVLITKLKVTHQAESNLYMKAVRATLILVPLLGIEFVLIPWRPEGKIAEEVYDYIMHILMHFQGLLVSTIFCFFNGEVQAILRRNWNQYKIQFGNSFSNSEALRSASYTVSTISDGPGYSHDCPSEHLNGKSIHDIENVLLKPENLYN

EC50 [nM], aequorin luminescence of CHO adrenomedullin-receptor reporter cells [1]: 49.6 nM
EC50 [nM], cAMP assay (CRE-luciferase luminescence, HEK293 cells) [2]: 67 nM
B1: [G^14, (Dpr^16, D^21)lac]ADM(14-52) (peptide)
peptide: GG[Dap]RFGTDTVQKLAHQIYQFTDKDKDNVAPRSKISPQGY-NH2
modifications: lactam 3-8; N-terminus assumed
SMILES: CC[C@H](C)[C@H](NC(=O)[C@H](CCC(N)=O)NC(=O)[C@H](Cc1c[nH]cn1)NC(=O)[C@H](C)NC(=O)[C@H](CC(C)C)NC(=O)[C@H](CCCCN)NC(=O)[C@H](CCC(N)=O)NC(=O)[C@@H](NC(=O)[C@@H](NC(=O)[C@@H]1CC(=O)NC[C@H](NC(=O)CNC(=O)CN)C(=O)N[C@@H](CCCNC(=N)N)C(=O)N[C@@H](Cc2ccccc2)C(=O)NCC(=O)N[C@@H]([C@@H](C)O)C(=O)N1)[C@@H](C)O)C(C)C)C(=O)N[C@@H](Cc1ccc(O)cc1)C(=O)N[C@@H](CCC(N)=O)C(=O)N[C@@H](Cc1ccccc1)C(=O)N[C@H](C(=O)N[C@@H](CC(=O)O)C(=O)N[C@@H](CCCCN)C(=O)N[C@@H](CC(=O)O)C(=O)N[C@@H](CCCCN)C(=O)N[C@@H](CC(=O)O)C(=O)N[C@@H](CC(N)=O)C(=O)N[C@H](C(=O)N[C@@H](C)C(=O)N1CCC[C@H]1C(=O)N[C@@H](CCCNC(=N)N)C(=O)N[C@@H](CO)C(=O)N[C@@H](CCCCN)C(=O)N[C@H](C(=O)N[C@@H](CO)C(=O)N1CCC[C@H]1C(=O)N[C@@H](CCC(N)=O)C(=O)NCC(=O)N[C@@H](Cc1ccc(O)cc1)C(N)=O)[C@@H](C)CC)C(C)C)[C@@H](C)O

EC50 [nM], aequorin luminescence of CHO adrenomedullin-receptor reporter cells [1]: 56 nM
EC50 [nM], cAMP assay (CRE-luciferase luminescence, HEK293 cells) [2]: 3.4 nM
B2: [K^14(PAM), (Dpr^16,E^21)lac, N-Me-K^46]ADM(14-52) (peptide)
peptide: K(Palmitoyl)G[Dap]RFGTETVQKLAHQIYQFTDKDKDNVAPRS[NMeK]ISPQGY-NH2
modifications: lactam 3-8; N-terminus assumed
SMILES: CCCCCCCCCCCCCCCC(=O)NCCCC[C@H](N)C(=O)NCC(=O)N[C@H]1CNC(=O)CC[C@@H](C(=O)N[C@H](C(=O)N[C@H](C(=O)N[C@@H](CCC(N)=O)C(=O)N[C@@H](CCCCN)C(=O)N[C@@H](CC(C)C)C(=O)N[C@@H](C)C(=O)N[C@@H](Cc2c[nH]cn2)C(=O)N[C@@H](CCC(N)=O)C(=O)N[C@H](C(=O)N[C@@H](Cc2ccc(O)cc2)C(=O)N[C@@H](CCC(N)=O)C(=O)N[C@@H](Cc2ccccc2)C(=O)N[C@H](C(=O)N[C@@H](CC(=O)O)C(=O)N[C@@H](CCCCN)C(=O)N[C@@H](CC(=O)O)C(=O)N[C@@H](CCCCN)C(=O)N[C@@H](CC(=O)O)C(=O)N[C@@H](CC(N)=O)C(=O)N[C@H](C(=O)N[C@@H](C)C(=O)N2CCC[C@H]2C(=O)N[C@@H](CCCNC(=N)N)C(=O)N[C@@H](CO)C(=O)N(C)[C@@H](CCCCN)C(=O)N[C@H](C(=O)N[C@@H](CO)C(=O)N2CCC[C@H]2C(=O)N[C@@H](CCC(N)=O)C(=O)NCC(=O)N[C@@H](Cc2ccc(O)cc2)C(N)=O)[C@@H](C)CC)C(C)C)[C@@H](C)O)[C@@H](C)CC)C(C)C)[C@@H](C)O)NC(=O)[C@H]([C@@H](C)O)NC(=O)CNC(=O)[C@H](Cc2ccccc2)NC(=O)[C@H](CCCNC(=N)N)NC1=O

EC50 [nM], aequorin luminescence of CHO adrenomedullin-receptor reporter cells [1]: 17.3 nM
EC50 [nM], cAMP assay (CRE-luciferase luminescence, HEK293 cells) [2]: 20 nM
Binder: GGDRFGT[Orn]TVQKLAHQIYQFTDKDKDNVAPRSKISPQGY-NH2 (lactam 3-8) [[G^14, (D^16, Orn^21)lac]ADM(14-52)]

EC50 [nM], aequorin luminescence of CHO adrenomedullin-receptor reporter cells [1]: > 1000 nM
EC50 [nM], cAMP assay (CRE-luciferase luminescence, HEK293 cells) [2]: 303 nM
Binder: GGERFGT[Dap]TVQKLAHQIYQFTDKDKDNVAPRSKISPQGY-NH2 (lactam 3-8) [[G^14, (E^16, Dpr^21)lac]ADM(14-52)]

EC50 [nM], aequorin luminescence of CHO adrenomedullin-receptor reporter cells [1]: 5.26 nM
EC50 [nM], cAMP assay (CRE-luciferase luminescence, HEK293 cells) [2]: 2.9 nM
B3: [G^14, (Dpr^16, E^21)lac]ADM(14-52) (peptide)
peptide: GG[Dap]RFGTETVQKLAHQIYQFTDKDKDNVAPRSKISPQGY-NH2
modifications: lactam 3-8; N-terminus assumed
SMILES: CC[C@H](C)[C@H](NC(=O)[C@H](CCC(N)=O)NC(=O)[C@H](Cc1c[nH]cn1)NC(=O)[C@H](C)NC(=O)[C@H](CC(C)C)NC(=O)[C@H](CCCCN)NC(=O)[C@H](CCC(N)=O)NC(=O)[C@@H](NC(=O)[C@@H](NC(=O)[C@@H]1CCC(=O)NC[C@H](NC(=O)CNC(=O)CN)C(=O)N[C@@H](CCCNC(=N)N)C(=O)N[C@@H](Cc2ccccc2)C(=O)NCC(=O)N[C@@H]([C@@H](C)O)C(=O)N1)[C@@H](C)O)C(C)C)C(=O)N[C@@H](Cc1ccc(O)cc1)C(=O)N[C@@H](CCC(N)=O)C(=O)N[C@@H](Cc1ccccc1)C(=O)N[C@H](C(=O)N[C@@H](CC(=O)O)C(=O)N[C@@H](CCCCN)C(=O)N[C@@H](CC(=O)O)C(=O)N[C@@H](CCCCN)C(=O)N[C@@H](CC(=O)O)C(=O)N[C@@H](CC(N)=O)C(=O)N[C@H](C(=O)N[C@@H](C)C(=O)N1CCC[C@H]1C(=O)N[C@@H](CCCNC(=N)N)C(=O)N[C@@H](CO)C(=O)N[C@@H](CCCCN)C(=O)N[C@H](C(=O)N[C@@H](CO)C(=O)N1CCC[C@H]1C(=O)N[C@@H](CCC(N)=O)C(=O)NCC(=O)N[C@@H](Cc1ccc(O)cc1)C(N)=O)[C@@H](C)CC)C(C)C)[C@@H](C)O

EC50 [nM], aequorin luminescence of CHO adrenomedullin-receptor reporter cells [1]: 21.1 nM
EC50 [nM], cAMP assay (CRE-luciferase luminescence, HEK293 cells) [2]: 21 nM
Binder: GGDRFGT[Dab]TVQKLAHQIYQFTDKDKDNVAPRSKISPQGY-NH2 (lactam 3-8) [[G^14, (D^16, Dab^21)lac]ADM(14-52)]

EC50 [nM], aequorin luminescence of CHO adrenomedullin-receptor reporter cells [1]: > 1000 nM
EC50 [nM], cAMP assay (CRE-luciferase luminescence, HEK293 cells) [2]: 112 nM
B4: [G^14, (Dab^16, D^21)lac]ADM(14-52) (peptide)
peptide: GG[Dab]RFGTDTVQKLAHQIYQFTDKDKDNVAPRSKISPQGY-NH2
modifications: lactam 3-8; N-terminus assumed
SMILES: CC[C@H](C)[C@H](NC(=O)[C@H](CCC(N)=O)NC(=O)[C@H](Cc1c[nH]cn1)NC(=O)[C@H](C)NC(=O)[C@H](CC(C)C)NC(=O)[C@H](CCCCN)NC(=O)[C@H](CCC(N)=O)NC(=O)[C@@H](NC(=O)[C@@H](NC(=O)[C@@H]1CC(=O)NCC[C@H](NC(=O)CNC(=O)CN)C(=O)N[C@@H](CCCNC(=N)N)C(=O)N[C@@H](Cc2ccccc2)C(=O)NCC(=O)N[C@@H]([C@@H](C)O)C(=O)N1)[C@@H](C)O)C(C)C)C(=O)N[C@@H](Cc1ccc(O)cc1)C(=O)N[C@@H](CCC(N)=O)C(=O)N[C@@H](Cc1ccccc1)C(=O)N[C@H](C(=O)N[C@@H](CC(=O)O)C(=O)N[C@@H](CCCCN)C(=O)N[C@@H](CC(=O)O)C(=O)N[C@@H](CCCCN)C(=O)N[C@@H](CC(=O)O)C(=O)N[C@@H](CC(N)=O)C(=O)N[C@H](C(=O)N[C@@H](C)C(=O)N1CCC[C@H]1C(=O)N[C@@H](CCCNC(=N)N)C(=O)N[C@@H](CO)C(=O)N[C@@H](CCCCN)C(=O)N[C@H](C(=O)N[C@@H](CO)C(=O)N1CCC[C@H]1C(=O)N[C@@H](CCC(N)=O)C(=O)NCC(=O)N[C@@H](Cc1ccc(O)cc1)C(N)=O)[C@@H](C)CC)C(C)C)[C@@H](C)O

EC50 [nM], aequorin luminescence of CHO adrenomedullin-receptor reporter cells [1]: > 1000 nM
EC50 [nM], cAMP assay (CRE-luciferase luminescence, HEK293 cells) [2]: > 1000 nM
B5: [G^14, (Orn^16, D^21)lac]ADM(14-52) (peptide)
peptide: GG[Orn]RFGTDTVQKLAHQIYQFTDKDKDNVAPRSKISPQGY-NH2
modifications: lactam 3-8; N-terminus assumed
SMILES: CC[C@H](C)[C@H](NC(=O)[C@H](CCC(N)=O)NC(=O)[C@H](Cc1c[nH]cn1)NC(=O)[C@H](C)NC(=O)[C@H](CC(C)C)NC(=O)[C@H](CCCCN)NC(=O)[C@H](CCC(N)=O)NC(=O)[C@@H](NC(=O)[C@@H](NC(=O)[C@@H]1CC(=O)NCCC[C@H](NC(=O)CNC(=O)CN)C(=O)N[C@@H](CCCNC(=N)N)C(=O)N[C@@H](Cc2ccccc2)C(=O)NCC(=O)N[C@@H]([C@@H](C)O)C(=O)N1)[C@@H](C)O)C(C)C)C(=O)N[C@@H](Cc1ccc(O)cc1)C(=O)N[C@@H](CCC(N)=O)C(=O)N[C@@H](Cc1ccccc1)C(=O)N[C@H](C(=O)N[C@@H](CC(=O)O)C(=O)N[C@@H](CCCCN)C(=O)N[C@@H](CC(=O)O)C(=O)N[C@@H](CCCCN)C(=O)N[C@@H](CC(=O)O)C(=O)N[C@@H](CC(N)=O)C(=O)N[C@H](C(=O)N[C@@H](C)C(=O)N1CCC[C@H]1C(=O)N[C@@H](CCCNC(=N)N)C(=O)N[C@@H](CO)C(=O)N[C@@H](CCCCN)C(=O)N[C@H](C(=O)N[C@@H](CO)C(=O)N1CCC[C@H]1C(=O)N[C@@H](CCC(N)=O)C(=O)NCC(=O)N[C@@H](Cc1ccc(O)cc1)C(N)=O)[C@@H](C)CC)C(C)C)[C@@H](C)O
